Patent US20200270588A1, “GLUCOSYL TRANSFERASE POLYPEPTIDES AND METHODS OF USE” (Syngenta Participations AG, priority 2017, published 2020)
Changes are numbered by the printed parent chain. Names may count otherwise.

B1: S75K: additional mutation in SEQ ID No: 17 (protein)
chain: MASSRTGAGAGGRVVVFPFPFQGHFNPVMRLARALHARGLAITVFHSGALDPADYPADYRFVPVTVEADPKLLAKEDIAAIVTTLNASCDAPFRARLSALLAAEGRDSVRCVFTDVVWNAVLTASSDLGVPALGMMTASAASLRDYMAYRTLIDKGYLPVKEERKEDPVPELPPYLVKDLLRVDTSDLEEFAELLARTVTAARRASGLIFNTFPLIETDTLAEIHKALSVPVFAVAPLNKLVPTATASLHGVVQADRGCLQWLDTQQPGSVLYVSFGSFAAMDPHEFVELAWGLADSKRPFVWVVRPNLIRGFESGALPDGVEDEVRGRGIVVKWAPQEEVLAHPAVGGFLTHNGWNSTVEAISEGVPMVCCPRHGDQFGNMRYVCDVWKVGTELVGEQLERGQVKAAIDRLFGTKEGEEIKERMKEFKIAAAKGIGIGVDVDETASPRTDLTDLVDLIKSF
modifications: Mutated Zea mays Bx9 protein sequence
B2: A433V: additional mutation in SEQ ID No: 17 (protein)
chain: B1 chain with K75S, A433V
modifications: Mutated Zea mays Bx9 protein sequence
B3: S364L: additional mutation in SEQ ID No: 17 (protein)
chain: B1 chain with K75S, S364L
modifications: Mutated Zea mays Bx9 protein sequence
B4: M136F (protein)
chain: B1 chain with K75S, V117S, M136F, F279M, K334A
modifications: Zea mays
B5: L143F (protein)
chain: B1 chain with K75S, V117S, L143F, F279M, K334A
modifications: Zea mays
B6: H24A (protein)
chain: B1 chain with H24A, K75S, V117S, F279M, K334A
modifications: Zea mays
B7: R449C: additional mutation in SEQ ID No: 17 (protein)
chain: B1 chain with K75S, R449C
modifications: Mutated Zea mays Bx9 protein sequence
B8: H375Y: additional mutation in SEQ ID No: 17 (protein)
chain: B1 chain with K75S, H375Y
modifications: Mutated Zea mays Bx9 protein sequence
B9: V360M: additional mutation in SEQ ID No: 17 (protein)
chain: B1 chain with K75S, V360M
modifications: Mutated Zea mays Bx9 protein sequence
B10: A236G: additional mutation in SEQ ID No: 17 (protein)
chain: B1 chain with K75S, A236G
modifications: Mutated Zea mays Bx9 protein sequence
B11: A334P (protein)
chain: B1 chain with K75S, V117S, F279M, K334P
modifications: Zea mays
B12: A334I (protein)
chain: B1 chain with K75S, V117S, F279M, K334I
modifications: Zea mays
B13: G366H: additional mutation in SEQ ID No: 17 (protein)
chain: B1 chain with K75S, G366H
modifications: Mutated Zea mays Bx9 protein sequence
B14: S117V: bx9 SEQ ID NO:1 mutant (protein)
chain: B1 chain with K75S, F279M, K334A
modifications: Zea mays
B15: C372L (protein)
chain: B1 chain with K75S, V117S, F279M, K334A, C372L
modifications: Zea mays
B16: L143W (protein)
chain: B1 chain with K75S, V117S, L143W, F279M, K334A
modifications: Zea mays
B17: S117I: bx9 SEQ ID NO:1 mutant (protein)
chain: B1 chain with K75S, V117I, F279M, K334A
modifications: Zea mays

How the values were obtained:
[1] = UDP luminescence plate assay of E. coli extracts, mutants within SEQ ID No: 17, 2 mM metribuzin; type: biochemical, Zea mays; conditions: for metribuzin signal relative to the SEQ ID No:17 control (first parentheses) / ratio of metribuzin to DMSO signal (second parentheses) / SIGNAL: metribuzin signal of mutant divided by the signal of the SEQ ID No. 17 control / luminescence signal observed with 2 mM metribuzin: 2 mM metribuzin; for metribuzin signal relative to the SEQ ID No:17 control (first parentheses) / ratio of metribuzin to DMSO signal (second parentheses): additional mutation in SEQ ID No: 17; for SIGNAL: metribuzin signal of mutant divided by the signal of the SEQ ID No. 17 control: relative to SEQ ID No: 17 control; for luminescence signal in the DMSO control / luminescence signal observed with 2 mM metribuzin: additional mutations within SEQ ID No: 17; for luminescence signal in the DMSO control: DMSO in place of metribuzin; for luminescence signal observed with 2 mM metribuzin: control = SEQ ID No: 17
Protocol: Activities observed with metribuzin were generally lower in magnitude than seen with herbicide V in the previous examples. For example, in one plate assay run with 2 mM metribuzin using 5 ul of diluted extract of plate-grown BL21DE3 cells expressing w/t bx9 and assayed for 40 minutes (as described in Example 2) the UDP-Glo luminescence signal was ˜3.4 E6 as compared with ˜2.3E6 in the DMSO control and ˜1.7E6 in the H24A null mutant control. […] It was therefore important to assess potential improvements in the metribuzin activity of the various mutants relative to the wild type bx9 enzyme based not only on the H24A null activity control but also based upon controls with DMSO in place of metribuzin acceptor substrate. In some plate assays (using more dilute extracts) the metribuzin signals from the w/t enzyme was the same or barely greater than the DMSO control. Additionally, some mutations gave an increase in the ‘background’ UDP-glucose hydrolysis activity with just DMSO present that was the same or similar to the magnitude of the increase in signal seen with metribuzin. In these instances it is therefore uncertain from just this UDP-Glo assay method whether the specific metribuzin signal (glucosylation of metribuzin) is improved or not i.e. the signal seen with metribuzin may or may not all or to a large part be attributable to increased background hydrolysis). […] Thus the ratio of the metribuzin to DMSO signal as well as the increase in signal relative to the w/t bx9 is used to help distinguish those mutations most likely to offer the highest activity to metribuzin. A follow up assay monitored by, for example, LC MS is one method to distinguish these cases more quantitatively. The tables below summarise the results from two different sets of luminescence plate assays to detect single mutations giving improvements in the magnitude of the signal with metribuzin relative to w/t bx9 and/or the apparent specificity for metribuzin as measured by the deviation of the ratio of metribuzin to DMSO control activity from the bx9 w/t value of around unity.
A further separate screen was carried out to explore a library of additional mutations at various positions within the context of SEQ ID No: 17 for improved metribuzin activity. These were assayed, assessed and scored as above. […] These were S75K (2.5)(1.25), A236G (4.0)(1.15), A433V (3.3)(9.0) and R449C (1.8)(1.2).
A yet further and more comprehensive screen was carried out to explore saturation mutagenesis at all remaining amino acid positions within the context of SEQ ID No:17 for improved metribuzin activity. Again these were assayed, assessed and scored as above and the results of (out of the thousands screened) of the subset that were of interest are summarized in Table 16.

[2] = UDP luminescence plate assay of E. coli extracts, mutants of SEQ ID No: 1, 2 mM metribuzin; type: biochemical, Zea mays; conditions: for RATIO of the metribuzin signal to the DMSO signal: 2 mM metribuzin vs DMSO control, same mutant; for SIGNAL: metribuzin signal of mutant divided by the signal of w/t bx9 / luminescence signal observed with 2 mM metribuzin: 2 mM metribuzin; for SIGNAL: metribuzin signal of mutant divided by the signal of w/t bx9: relative to bx9 w/t; for luminescence signal in the DMSO control: mutants of SEQ ID No: 1, DMSO in place of metribuzin (background UDP-glucose hydrolysis); for luminescence signal observed with 2 mM metribuzin: mutants of SEQ ID No: 1 in E. coli extracts, UDP luminescence
Protocol: Optionally plate assays are stopped with brief heating to 95 C before returning to ice and addition of UDP-Glo detection reagent followed by incubation at lab temperature. […] In addition a UDP standard curve is run alongside each set of plate tests.
Assays were carried out on extracts of E. coli BL21 DE3 expressing the various C-terminally his-tagged library variants of SEQ ID NO:1 at the amino acid positions listed in Table 11 as described in Example 2 except, in this case, with 2 mM metribuzin in place of herbicide V.
Thus the ratio of the metribuzin to DMSO signal as well as the increase in signal relative to the w/t bx9 is used to help distinguish those mutations most likely to offer the highest activity to metribuzin. A follow up assay monitored by, for example, LC MS is one method to distinguish these cases more quantitatively.

Molecule	metribuzin signal relative to the SEQ ID No:17 control (first parentheses) [1]	ratio of metribuzin to DMSO signal (second parentheses) [1]	RATIO of the metribuzin signal to the DMSO signal ([1]; 2 mM metribuzin vs DMSO control, same mutant)	SIGNAL: metribuzin signal of mutant divided by the signal of the SEQ ID No. 17 control [1]	luminescence signal in the DMSO control [1]	luminescence signal observed with 2 mM metribuzin [1]	RATIO of the metribuzin signal to the DMSO signal [2]	SIGNAL: metribuzin signal of mutant divided by the signal of w/t bx9 [2]	luminescence signal in the DMSO control [2]	luminescence signal observed with 2 mM metribuzin [2]
B1	2.5	1.25	–	–	–	–	–	–	–	–
B2	3.3	9.0	–	–	–	–	–	–	–	–
B3	3.3	1.20	1.19	3.29	5.04E+06	6.00E+06	–	–	–	–
B4	–	–	–	–	–	–	1.00	0.93	2.57E+05	2.59E+05
B5	–	–	–	–	–	–	1.09	1.23	3.18E+05	3.45E+05
B6	–	–	–	–	–	–	–	–	2.60E+05	2.39E+05
B7	1.8	1.2	–	–	–	–	–	–	–	–
B8	3.8	2.33	–	3.80	2.97E+06	6.93E+06	–	–	–	–
B9	2.0	1.28	–	2.02	2.88E+06	3.68E+06	–	–	–	–
B10	4.0	1.15	–	–	–	–	–	–	–	–
B11	–	–	–	–	–	–	0.88	1.24	3.97E+05	3.48E+05
B12	–	–	–	–	–	–	0.89	1.05	3.29E+05	2.94E+05
B13	3.4	1.34	–	3.38	4.62E+06	6.17E+06	–	–	–	–
B14	–	–	–	–	–	–	–	1.18	3.38E+05	3.30E+05
B15	–	–	–	–	–	–	1.06	1.22	3.22E+05	3.41E+05
B16	–	–	–	–	–	–	1.12	0.97	2.42E+05	2.72E+05
B17	–	–	–	–	–	–	–	1.99	5.14E+05	5.56E+05
